In patent publication US20220177587A1, “METHODS AND USES OF VARIANT CD80 FUSION PROTEINS AND RELATED CONSTRUCTS” (Alpine Immune Sciences, Inc., priority 2018, published 2022):
Changes are numbered by the printed parent chain. In names and notes the source's numbering stands. Blank lines part the entries; values can stand above or below the molecule they belong to.

Key:
CD28 [1] = target: T1, CD28 (Homo sapiens, UniProt P10747); assay: Flow binding to Jurkat/IL2 reporter cells (CD28); design: host or cells: Jurkat cells expressing an IL-2-luciferase reporter
Protocol: (§1) Binding of selected immunomodulatory fusion proteins to cognate binding partners was assessed. […] Cells were sorted in a Bio-Rad S3 Cell Sorter (Bio-Rad Corp., USA) to >98% purity. Jurkat/IL2 reporter cells, which endogenously express CD28, were used to detect binding to CD28.
(§2) For staining and analysis by flow cytometry, 100,000 cells of appropriate transfected cells were plated in 96-well round bottom plates. Cells were spun down and resuspended in staining buffer (phosphate buffered saline (PBS), 1% bovine serum albumin (BSA), and 0.1% sodium azide) for 20 minutes to block non-specific binding. […] Primary staining was performed on ice for 45 minutes, before washing cells in staining buffer twice. Phycoerythrin (PE)-conjugated anti-human Fc (Jackson ImmunoResearch, USA) was diluted 1:150, added to cells and incubated another 30 minutes on ice. Cells were then washed twice with 150 μL/well stain buffer, fixed in 2% formaldehyde/PBS, and analyzed on Intellicyt flow cytometer (Intellicyt Corp., USA). PE Mean Fluorescence Intensity (MFI) was calculated for each cell type with FlowJo Version 10 software (FlowJo LLC, USA).
(§3) Binding assays were carried out to assess the specificity and affinity of multivalent proteins to cell-expressed CTLA-4, CD28, and PD-L1 counter structures.
(§4) The EC50 for binding also was determined.

huCTLA4 = huCTLA4 (Homo sapiens, UniProt P16410); assay: Flow binding to CHO cells stably expressing CTLA4; design: huCTLA4 and huPD-L1, full-length mammalian surface expression constructs were generated; expressed in transfected cells; host or cells: CHO cells, lentiviral transduction, sorted to >98% purity; conditions: for CTLA4 MFI at 33.3 nM: CHO cells stably expressing CTLA4
Protocol: as §1, §2, §3, §4

CD28 [2] = target: T1, CD28; assay: Jurkat/IL2 + CHO/OKT3 +/- PD-L1 reporter assay: PD-L1-dependent CD28 costimulation; type: cell-based; design: host or cells: Jurkat cells expressing an IL-2-luciferase reporter; conditions: Jurkat/IL2 + CHO/OKT3/PD-L1, 5.0 nM
Method in brief: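 Jurkat reporter cells (100,000/well) preincubated 15 min at room temperature with test protein, then cocultured 5 h at 37 °C with CHO aAPCs bearing anti-CD3 scFv (OKT3) with or without PD-L1. Luciferase luminescence (RLU) read after lysis-substrate addition.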

huPD-L1 = huPD-L1 (Homo sapiens, UniProt Q9NZQ7); assay: Flow binding to CHO cells stably expressing PD-L1; design: huCTLA4 and huPD-L1, full-length mammalian surface expression constructs were generated; expressed in transfected cells; host or cells: CHO cells, lentiviral transduction, sorted to >98% purity; conditions: for PD-L1 MFI at 33.3 nM: CHO cells stably expressing PD-L1
Method in brief: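 Fusion proteins bound to CHO cells stably expressing CTLA4 or PD-L1, or to Jurkat/IL2 reporter cells with endogenous CD28, for 45 min on ice after blocking in PBS/1% BSA. Detection with PE anti-human Fc by flow cytometry; PE MFI per cell type and binding EC50 determined.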

[3] = Table E23, CD80 IgV-Fc (inert) at 33.3 nM, Jurkat (CD28)
[4] = Table E23, CD80 IgV-Fc (inert) at 33.3 nM
[5] = Table E4, 33.3 nM, Jurkat cells (CD28)
[6] = Table E4, MFI ratio to WT CD80 ECD-Fc (R&D) at 33.3 nM
[7] = Table E4, binding to PD-L1 compared to binding to CD28
[8] = Table E4, 33.3 nM variant CD80 IgV-Fc
[9] = Table E19, Jurkats (CD28), 33.3 nM
[10] = Table E11, 33.3 nM, listed as WT CD80 ECD-Fc = 1.0

huCTLA4, sequence (P16410 36-223): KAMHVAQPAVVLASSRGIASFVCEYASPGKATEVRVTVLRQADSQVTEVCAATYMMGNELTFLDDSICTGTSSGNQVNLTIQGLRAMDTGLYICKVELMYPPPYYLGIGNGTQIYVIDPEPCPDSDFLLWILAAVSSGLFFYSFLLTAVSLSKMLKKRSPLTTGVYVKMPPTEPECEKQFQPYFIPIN
huPD-L1, sequence (Q9NZQ7 19-290): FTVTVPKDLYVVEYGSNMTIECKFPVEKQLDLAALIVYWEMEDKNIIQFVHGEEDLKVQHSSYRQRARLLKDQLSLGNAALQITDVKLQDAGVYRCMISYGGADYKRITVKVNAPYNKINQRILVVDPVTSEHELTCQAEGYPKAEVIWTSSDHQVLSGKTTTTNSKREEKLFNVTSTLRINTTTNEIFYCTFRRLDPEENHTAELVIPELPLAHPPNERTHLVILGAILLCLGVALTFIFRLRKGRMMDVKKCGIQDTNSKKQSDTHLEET

CD28 MFI at 33.3 nM (CD28 [1]; Table E14, Jurkats (CD28), 33.3 nM): 1400
CTLA4 MFI at 33.3 nM (huCTLA4; Table E14, 33.3 nM): 10332
B1: E35D/M47LN68M/A71G/L85Q/D90G (protein, UniProt P33681 35-288, looked up, variant E35D M47L V68M A71G L85Q D90G)
T-lymphocyte activation …: VIHVTKEVKEVATLSCGHNVSVEELAQTRIYWQKDKKMVLTMMSGDLNIWPEYKNRTIFDITNNLSIMILGLRPSDEGTYECVVQKYEKGAFKREHLAEVTLSVKADFPTPSISDFEIPTSNIRRIICSTSGGFPEPHLSWLENGEELNAINTTVSQDPETELYAVSSKLDFNMTTNHSFMCLIKYGHLRVNQTFNWNTTKQEHFPDNLLPSWAITLISVNGIFVICCLTYCFAPRCRERRRNERLRRESVRPV

CD28 MFI at 33.3 nM (CD28 [1]; [3]): 2115
Relative Luciferase Units (RLU), CD80 Conc 5.0 nM (CD28 [2]; Table E24): 854 RLU
PD-L1 MFI at 33.3 nM (huPD-L1; [4]): 43588
B2: H18V/E35D/M47V/V68M/A71G/D90G (protein, UniProt P33681 35-288, looked up, variant H18V E35D M47V V68M A71G D90G)
T-lymphocyte activation …: B1 T-lymphocyte activation … with H18V, L47V, Q85L

CD28 MFI at 33.3 nM (CD28 [1]; Table E25, linker variants, 33.3 nM, Jurkats (CD28)): 267
Relative Luciferase Units (RLU), CD80 Conc 5.0 nM (CD28 [2]; Table E26, linker variants): 1592 RLU
PD-L1 MFI at 33.3 nM (huPD-L1; Table E25, linker variants, 33.3 nM): 22596
B3: E35D/D46V/M47L/V68M/L85Q/E88D GS(G4S)3 (protein, UniProt P33681 35-288, looked up, variant E35D D46V M47L V68M L85Q E88D)
T-lymphocyte activation …: B1 T-lymphocyte activation … with D46V, G71A, E88D, G90D
modifications: GS(G4S)3 linker

CD28 MFI at 33.3 nM (CD28 [1]; [3]): 6911
Relative Luciferase Units (RLU), CD80 Conc 5.0 nM (CD28 [2]; Table E24): 821 RLU
PD-L1 MFI at 33.3 nM (huPD-L1; [4]): 51521
B4: H18Y/A26P/E35D/M47V/V68M/A71G (protein, UniProt P33681 35-288, looked up, variant H18Y A26P E35D M47V V68M A71G)
T-lymphocyte activation …: B1 T-lymphocyte activation … with H18Y, A26P, L47V, Q85L, G90D

CD28 MFI at 33.3 nM (CD28 [1]; [5]): 11736
CD28 Fold change to WT CD80 (CD28 [1]; [6]): 0.65
PD-L1 MFI at 33.3 nM (huPD-L1; Table E4, 33.3 nM): 89775
PD-L1 Fold change to WT CD80 (huPD-L1; [6]): 7.56
Ratio of PDL1:CD28 (huPD-L1; [7]): 8
CTLA4 MFI at 33.3 nM (huCTLA4; [8]): 807
CTLA4 Fold change to WT CD80 (huCTLA4; [6]): 0.01
B5: E35D/M47V/N48KN68M/K89N (protein)
chain: VIHVTKEVKEVATLSCGHNVSVEELAQTRIYWQKDKKMVLTMMSGDVKIWPEYKNRTIFDITNNLSIMILALRPSDEGTYECVVLKYENDAFKREHLAEVTLSVKAD

CD28 MFI at 33.3 nM (CD28 [1]; [9]): 413
PD-L1 MFI at 33.3 nM (huPD-L1; Table E19, 33.3 nM): 3083
CTLA4 MFI at 33.3 nM (huCTLA4; Table E19, 33.3 nM): 44640
B6: M47V/N48K (protein)
chain: B5 chain with D35E, M68V, N89K

CD28 MFI at 33.3 nM (CD28 [1]; [5]): 400
CD28 Fold change to WT CD80 (CD28 [1]; [6]): 0.02
PD-L1 MFI at 33.3 nM (huPD-L1; Table E4, 33.3 nM): 19880
PD-L1 Fold change to WT CD80 (huPD-L1; [6]): 1.67
Ratio of PDL1:CD28 (huPD-L1; [7]): 50
CTLA4 MFI at 33.3 nM (huCTLA4; [8]): 246401
CTLA4 Fold change to WT CD80 (huCTLA4; [6]): 1.57
B7: E35D/L85Q/K93I/E95V/L97Q (protein)
chain: B5 chain with V47M, K48N, M68V, L85Q, N89K, K93T, E95V, L97Q

CD28 MFI at 33.3 nM (CD28 [1]; Table E20, Jurkats (CD28), 33.3 nM): 372
PD-L1 MFI at 33.3 nM (huPD-L1; Table E20, 33.3 nM): 17904
CTLA4 MFI at 33.3 nM (huCTLA4; Table E20, 33.3 nM): 20929
B8: H18Y/A26E/E35D/V68M (protein)
chain: B5 chain with H18Y, A26E, V47M, K48N, N89K

CD28 MFI at 33.3 nM (CD28 [1]; [9]): 35
CTLA4 MFI at 33.3 nM (huCTLA4; Table E19, 33.3 nM): 3002
B9: L85Q (protein)
chain: B5 chain with D35E, V47M, K48N, M68V, L85Q, N89K

CD28 MFI at 33.3 nM (CD28 [1]; [9]): 37.9
PD-L1 MFI at 33.3 nM (huPD-L1; Table E19, 33.3 nM): 118
CTLA4 MFI at 33.3 nM (huCTLA4; Table E19, 33.3 nM): 568
B10: V68M (protein)
chain: B5 chain with D35E, V47M, K48N, N89K

CD28 Fold change to WT CD80 (CD28 [1]; [10]): 9.6
CD28 MFI at 33.3 nM (CD28 [1]; Table E11, Jurkats (CD28), 33.3 nM): 302
PD-L1 Fold change to WT CD80 (huPD-L1; [10]): 442.1
PD-L1 MFI at 33.3 nM (huPD-L1; Table E11, 33.3 nM): 22770
Ratio of PDL1:CD28 (huPD-L1; Table E11, MFI at 33.3 nM): 75.4
CTLA4 Fold change to WT CD80 (huCTLA4; [10]): 9.5
CTLA4 MFI at 33.3 nM (huCTLA4; Table E11, 33.3 nM): 16604
B11: E35D/M47V/N48KN68M/A71G/L85M (protein)
chain: B5 chain with A71G, L85M, N89K
